Data reported in article PMC3785480.

Key:
[1] = target: recombinant BB0347 (Borrelia burgdorferi); assay: ELISA; Figure 5, rBB0347 with full-length Fn; which protein was coated is not told; KD = concentration of added protein at half-maximal binding, assuming saturation
[2] = target: recombinant BB0347 (Borrelia burgdorferi); assay: ELISA

human fibronectin (from UniProt P02751 32-2477) (natural protein)
Kd [1]: 200 nM | percent reduction of binding with 50 µM heparin [2]: 40%
